± gives the standard error. Fewer inactive variants are shown than the library holds.
B1: glmS ribozyme (parent)
chain: AUAAAAGCGCCAGAACUACAGAAAUGUAGUUGACGAGGAGGAGGUUUAUCGAAUUUUCGGCGGAUGCCUCCAAA

Key:
Conditions in all cases: with glucosamine-6-phosphate
glucosamine-6-phosphate [1] = variants of: B1; experiment: self-cleavage kobs at 40 uM GlcN6P; higher = faster cleavage; RNA array
In short: (§1)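 Tiles bearing barcoded ribozyme variants, transcribed in situ by E. coli RNA polymerase on sequenced MiSeq chips, were imaged over ~14 h at 37 °C using a hybridised Cy3 probe. Glucosamine-6-phosphate was supplied at 40 μM to 10 mM in HEPES/KCl/Mg(OAc)2 buffer. kobs came from one- or two-exponential decay fits to normalised per-tile medians, and weighted Michaelis–Menten fits then provided kcat and KM.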

glucosamine-6-phosphate [2] = variants of: B1; experiment: self-cleavage kobs at 10000 uM GlcN6P; higher = faster cleavage; RNA array
In short: as §1

glucosamine-6-phosphate [3] = variants of: B1; experiment: self-cleavage kobs at 160 uM GlcN6P; higher = faster cleavage; RNA array
In short: as §1

glucosamine-6-phosphate [4] = variants of: B1; experiment: self-cleavage kobs at 640 uM GlcN6P; higher = faster cleavage; RNA array
In short: as §1

glucosamine-6-phosphate [5] = variants of: B1; experiment: self-cleavage kobs at 2500 uM GlcN6P; higher = faster cleavage; RNA array
In short: as §1

Variant | self-cleavage kobs at 40 uM GlcN6P (glucosamine-6-phosphate [1]) | self-cleavage kobs at 10000 uM GlcN6P (glucosamine-6-phosphate [2]) | self-cleavage kobs at 160 uM GlcN6P (glucosamine-6-phosphate [3]) | self-cleavage kobs at 640 uM GlcN6P (glucosamine-6-phosphate [4]) | self-cleavage kobs at 2500 uM GlcN6P (glucosamine-6-phosphate [5])
AUAAAAGCGCCAGAACUACAGAAAUGUAGUUGACGAGGAGGAGGUUUCUCGAAUUUUCGGCGGAUGCAUCCAAA [A48C C68A] | < 1e-05 s⁻¹ | < 1e-05 s⁻¹ |  |  | 
AUAAAAGCGCCAGAACUACAGAAAUGUAGUUGACGAGGAGGAGGUUUAACGAAUUUUCGGCCGAUGCCUCCAAA [U49A G62C] | < 1e-05 s⁻¹ | < 1e-05 s⁻¹ |  |  | 
AUAAAAGCGCCAGAACUACAGAAAUGUAGUUGACGAGGAGGAGGUUUAACGAAUUUUCGGCUGAUGCCUCCAAA [U49A G62U] | < 1e-05 s⁻¹ | < 1e-05 s⁻¹ |  |  | 
AUAAAAGCGCCAGAACUACAGAAAUGUAGUUGACGAGGAGGAGGUUUACCGAAUUUUCUGCGGAUGCCUCCAAA [U49C G59U] | < 1e-05 s⁻¹ | < 1e-05 s⁻¹ | < 1e-05 s⁻¹ | < 1e-05 s⁻¹ | 
AUAAAAGCGCCAGAACUACAGAAAUGUAGUUGACGAGGAGGAGGUUUGUCGAAUUUUCGGCGGACGCCUCCAAA [A48G U65C] | < 1e-05 s⁻¹ | < 1e-05 s⁻¹ |  |  | 
AUAAAAGCGCCAGAACUACAGAAAUGUAGUUGACGAGGAGGAGGUUUAACGAAUUUUCGCCGGAUGCCUCCAAA [U49A G60C] | < 1e-05 s⁻¹ | < 1e-05 s⁻¹ |  | < 1e-05 s⁻¹ | < 1e-05 s⁻¹
AUAAAAGCGCCAGAACUACAGAAAUGUAGUUGACGAGGAGGAGGUUUACCGAAUUUUCGGCGGAUGCCUUCAAA [U49C C70U] | < 1e-05 s⁻¹ | < 1e-05 s⁻¹ |  | < 1e-05 s⁻¹ | 
AUAAAAGCGCCAGAACUACAGAAAUGUAGUUGACGAGGAGGAGGUUUUUCGAAUUUUCGGCGCAUGCCUCCAAA [A48U G63C] | < 1e-05 s⁻¹ | < 1e-05 s⁻¹ | < 1e-05 s⁻¹ | < 1e-05 s⁻¹ | < 1e-05 s⁻¹
AUAAAAGCGCCAGAACUACAGAAAUGUAGUUGACGAGGAGGAGGUUUACCGAAUUUUCGGCGGAUCCCUCCAAA [U49C G66C] | < 1e-05 s⁻¹ | < 1e-05 s⁻¹ | < 1e-05 s⁻¹ | < 1e-05 s⁻¹ | 
AUAAAAGCGCCAGAACUACAGAAAUGUAGUUGACGAGGAGGAGGUUUCUCGAAUUUUCGGCGGAUGCCUACAAA [A48C C70A] | < 1e-05 s⁻¹ |  |  | < 1e-05 s⁻¹ | 
AUAAAAGCGCCAGAACUACAGAAAUGUAGUUGACGAGGAGGAGGUUUCUCUAAUUUUCGGCGGAUGCCUCCAAA [A48C G51U] | < 1e-05 s⁻¹ | < 1e-05 s⁻¹ |  | < 1e-05 s⁻¹ | 
AUAAAAGCGCCAGAACUACAGAAAUGUAGUUGACGAGGAGGAGGUUUUUCGAAUUUUCAGCGGAUGCCUCCAAA [A48U G59A] | < 1e-05 s⁻¹ | < 1e-05 s⁻¹ | < 1e-05 s⁻¹ | < 1e-05 s⁻¹ | < 1e-05 s⁻¹
AUAAAAGCGCCAGAACUACAGAAAUGUAGUUGACGAGGAGGAGGUUUCUCGAAUUUUCGGCGGAUGCCUCAAAA [A48C C71A] | < 1e-05 s⁻¹ | 4.23e-05 ± 1e-05 s⁻¹ | < 1e-05 s⁻¹ |  | 3.84e-05 ± 1.4e-05 s⁻¹
AUAAAAGCGCCAGAACUACAGAAAUGUAGUUGACGAGGAGGAGGUUUUUCGACUUUUCGGCGGAUGCCUCCAAA [A48U A53C] | < 1e-05 s⁻¹ |  | < 1e-05 s⁻¹ |  | 
AUAAAAGCGCCAGAACUACAGAAAUGUAGUUGACGAGGAGGAGGUUUGUCGAAAUUUCGGUGGAUGCCUCCAAA [A48G U54A C61U] | < 1e-05 s⁻¹ |  |  |  | 
AUAAAAGCGCCAGAACUACAGAAAUGUAGUUGACGAGGAGGAGGUUUUUCGAAUUUUUGGCGGAUGCCUCCAAA [A48U C58U] | < 1e-05 s⁻¹ | < 1e-05 s⁻¹ | < 1e-05 s⁻¹ | < 1e-05 s⁻¹ | < 1e-05 s⁻¹
AUAAAAGCGCCAGAACUACAGAAAUGUAGUUGACGAGGAGGAGGUUUUCCGAAUUUUCGGCGGAUGCCUCCAAA [A48U U49C] | < 1e-05 s⁻¹ | < 1e-05 s⁻¹ | < 1e-05 s⁻¹ |  | < 1e-05 s⁻¹
AUAAAAGCGCCAGAACUACAGAAAUGUAGUUGACGAGGAGGAGGUUUUUCGAAUUUUCGUCGGAUGCCUCCAAA [A48U G60U] | < 1e-05 s⁻¹ | < 1e-05 s⁻¹ | < 1e-05 s⁻¹ | < 1e-05 s⁻¹ | < 1e-05 s⁻¹
AUAAAAGCGCCAGAACUACAGAAAUGUAGUUGACGAGGAGGAGGUUUAACGAAUUUUAGGCGGAUGCCUCCAAA [U49A C58A] | < 1e-05 s⁻¹ |  | < 1e-05 s⁻¹ | < 1e-05 s⁻¹ | 
AUAAAAGCGCCAGAACUACAGAAAUGUAGUUGACGAGGAGGAGGUUUCUCGAAUUUUCGGCGGAUGCCGUCAAA [A48C U69G C70U] | < 1e-05 s⁻¹ | < 1e-05 s⁻¹ |  |  | < 1e-05 s⁻¹
AUAAAAGCGCCAGAACUACAGAAAUGUAGUUGACGAGGAGGAGGUUUCGCGAAUUUUCGGCAGAUGCCUCCAAA [A48C U49G G62A] | < 1e-05 s⁻¹ |  |  |  | 
AUAAAAGCGCCAGAACUACAGAAAUGUAGUUGACGAGGAGGAGGUUUGUCGAAUUUUCGGCGGGUGCCUCCAAA [A48G A64G] | < 1e-05 s⁻¹ | 9.59e-05 ± 2.5e-05 s⁻¹ |  |  | 7.81e-05 ± 2.4e-05 s⁻¹
AUAAAAGCGCCAGAACUACAGAAAUGUAGUUGACGAGGAGGAGGUUUUUCGAAUUAUAGGCGGAUGCCUCCAAA [A48U U56A C58A] | < 1e-05 s⁻¹ |  |  |  | 
AUAAAAGCGCCAGAACUACAGAAAUGUAGUUGACGAGGAGGAGGUUUUUCUAAUUUUCGGCGGAGGCCUCUAAA [A48U G51U U65G C71U] | < 1e-05 s⁻¹ |  |  |  | < 1e-05 s⁻¹
AUAAAAGCGCCAGAACUACAGAAAUGUAGUUGACGAGGAGGAGGUUUGUGGAAUUUUCGGAGGAUGCCUCCAAA [A48G C50G C61A] | 9.98e-05 ± 2.4e-05 s⁻¹ | 6.27e-05 ± 1.9e-05 s⁻¹ |  |  | 
AUAAAAGCGCCAGAACUACAGAAAUGUAGUUGACGAGGAGGAGGUUUCUCGAAUUUUCGGCGAAUGCCUACAAA [A48C G63A C70A] | < 1e-05 s⁻¹ |  |  |  | 

Reference: the supplement of paper PMC7125110
